Measured values as given in PMC6602975 (2019).

What was measured:
[1] = target: Unmodified nucleosome core particle (X. laevis histone octamer on 147 bp Widom-601 DNA) (X. laevis)
[2] = target: H4K16ac nucleosome (X. laevis | , acetyl-lysine at K16)

Binder	Kd [1]	Kd [2]
Sir3 BAH D205Q (domain or fragment) MAKTLKDLDGWQVIITDDQGRVIDDNNRRRSRKRGGENVFLKRISDGLSFGKGESVIFNDNVTETYSVYLIHEIRLNTLNNVVEIWVFSYLRWFELKPKLYYEQFRPDLIKEDHPLEFYKDKFFNEVNKSELYLTAELSEIWLKDFIAVGQILPESQWNDSSIDKIEDRDFLVRYACEPTAEKFVPIDIFQIIRRVKEMEPKQSQEYLKRVSVP	0.3 µM	1.2 µM
Wild-type Orc1 (1–214) BAH domain (domain or fragment, N-alpha-acetyl on A2 (acetylated at the α-amino group when purified from eukaryotic cells)) MAKTLKDLQGWEIITTDEQGNIIDGGQKRLRRRGAKTEHYLKRSSDGIKLGRGDSVVMHNEAAGTYSVYMIQELRLNTLNNVVELWALTYLRWFEVNPLAHYRQFNPDANILNRPLNYYNKLFSETANKNELYLTAELAELQLFNFIRVANVMDGSKWEVLKGNVDPERDFTVRYICEPTGEKFVDINIEDVKAYIKKVEPREAQEYLKDLTLP	1.1 µM	
